Test results: doi:10.1101/2022.03.01.482405

What was measured:
[1] = molecular target: Photosystem I trimer from Thermosynechococcus elongatus BP-1 (His10-tag on PsaF) (Thermosynechococcus elongatus BP-1) (UniProt P0A405); test: ITC
[2] = molecular target: Photosystem I protomer from Thermosynechococcus elongatus BP-1 (His10-tag on PsaF) (Thermosynechococcus elongatus BP-1) (UniProt P0A405); test: cryo-EM structure

| Kd [1] | stoichiometry N [2] | Substance |
| --- | --- | --- |
| 800 µM | – | gallium-substituted ferredoxin from Thermosynechococcus elongatus BP-1 (from UniProt P0A3C9) (natural protein) |
| – | 3 | Photosystem I protomer from Thermosynechococcus elongatus BP-1 (His10-tag on PsaF) (from UniProt P0A405;P0A407;P0A415;P0A420;P0A423;P0A401;P0A427;P0A429;P0A425;Q8DGB4;P0A403) (complex) |
